What was measured:
[1] = target: T1, human VEGF (human, UniProt P15692-4 27-191, biotinylated in selections and on the SA sensorchip); test: RBA assay (footnote †); value read as that of the Fc fusion
T1 construct: also called hVEGF; VEGFA

[2] = target: T2, TNFR1-FC fusion (human, UniProt P19438 30-211, limits assumed); test: human TNFR1 receptor binding assay: inhibition of TNF-alpha (10 ng/ml) binding to bead-captured TNFR1-Fc, four replicates
T2 construct: not shown: Fc part (captured by goat anti-human IgG)
T2 sequence (looked up): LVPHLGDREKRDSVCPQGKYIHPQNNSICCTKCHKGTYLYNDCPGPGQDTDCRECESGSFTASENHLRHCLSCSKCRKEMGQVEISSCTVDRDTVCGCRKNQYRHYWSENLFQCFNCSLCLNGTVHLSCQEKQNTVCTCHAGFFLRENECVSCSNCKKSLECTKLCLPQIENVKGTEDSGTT

T1 sequence (P15692 other isoform, or with tags, fused parts or gaps limits assumed): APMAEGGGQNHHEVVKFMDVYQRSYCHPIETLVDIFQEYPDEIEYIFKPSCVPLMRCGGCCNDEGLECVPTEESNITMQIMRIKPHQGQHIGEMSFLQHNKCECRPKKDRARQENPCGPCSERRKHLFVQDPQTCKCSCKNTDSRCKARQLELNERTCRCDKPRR

| Binder | Activity (nM), RBA assay [1] [nM] | IC50 (read off the curve) [2] [pM] |
| --- | --- | --- |
| DOM15-10 Fc fusion (Fc fusion, also called DMS1546; not shown: short peptide linker and human IgG1 Fc) DIQMTQSPSSLSASVGDRVTITCRASQWIGPELSWYQQKPGKAPKLLIYHTSILQSGVPSRFSGSGSGTDFTLTISSLQPEDFATYYCQQYMFQPRTFGQGTKVEIRR | 0.913 | – |
| DOM1h-131-206 (other, Human VH dAb against TNFR1; also called GSK1995057A) VH: EVQLLESGGGLVQPGGSLRLSCAASGFTFAHETMVWVRQAPGKGLEWVSHIPPDGQDPFYADSVKGRFTISRDNSKNTLYLQMNSLRAEDTAVYHCALLPKRGPWFDYWGQGTLVTVSS | – | ~80 |
